Measurements from PMC4623691.
Values belong to the substance of their own block, whether it stands above or below them.

Assays:
[1] = molecular target: cytosolic glutamine synthetase GS1 holoenzyme of wheat (39 kDa subunit) (Triticum aestivum (endogenous in wheat seedlings)) (UniProt Q45NB7); test: native gel or EMSA; modified blue native electrophoresis (BNE), 4-13% polyacrylamide gradient gel, 4 °C; 1 h with cathode buffer with 0.02% Coomassie G250, then buffer without dye; ~100 ug soluble proteins from wheat seedling chloroplasts, leaves and roots; GS bands detected by in-gel transferase activity; mass calibrated against high-molecular-weight markers
[2] = molecular target: maize glutamine synthetase (maize (endogenous in maize leaf and roots)); test: native gel or EMSA; maize leaf and root extracts beside wheat (Supplementary Fig. S5); gel system not given
[3] = molecular target: chloroplastic glutamine synthetase GS2 of wheat (Triticum aestivum (endogenous in wheat seedlings)); test: native gel or EMSA; modified blue native electrophoresis (BNE), 4-13% polyacrylamide gradient gel, 4 °C; 1 h with cathode buffer with 0.02% Coomassie G250, then buffer without dye; ~100 ug soluble proteins from wheat seedling chloroplasts, leaves and roots; GS bands detected by in-gel transferase activity; mass calibrated against high-molecular-weight markers

stoichiometry N [1]: 12
Substance: cytosolic glutamine synthetase GS1 holoenzyme of wheat (39 kDa subunit) (from UniProt Q45NB7 1-356) (natural protein)

stoichiometry N [2]: 10
Substance: maize glutamine synthetase (natural protein)

stoichiometry N [3]: 6
Substance: chloroplastic glutamine synthetase GS2 of wheat (natural protein)
